Each block holds one substance with its values, some of them ahead of it.
Experiments:
TopBP1 [1] = molecular target: TopBP1 (UniProt Q92547); test: biotin-peptide streptavidin pull-down from nuclear extract; settings: reference: nonphosphorylated peptide; sites S304
[2] = molecular target: TopBP1 BRCT domains 4 and 5 (UniProt Q92547); test: biotin-peptide pull-down of purified GST-BRCT4-5; settings: reference: nonphosphorylated peptide; sites S304
TopBP1 [3] = molecular target: TopBP1 (UniProt Q92547); test: GFP-BLM pull-down, western blot; settings: reference: wild type; sites S304
TopBP1 BRCT5 [4] = molecular target: TopBP1 BRCT5 (UniProt Q92547); test: GST-BRCT5 pull-down of SFB-BLM from lysate; settings: reference: wild type; sites S304
TopBP1 [5] = molecular target: TopBP1 (UniProt Q92547); test: GFP-BLM pull-down, western blot; settings: reference: wild type; sites S304; remark: listed apart in the source
TopBP1 [6] = molecular target: TopBP1 (UniProt Q92547); test: GFP-BLM pull-down, western blot; settings: reference: wild type; sites S304; remark: listed apart in the source
TopBP1 BRCT5 [7] = molecular target: TopBP1 BRCT5 (UniProt Q92547); test: biotin-peptide (Ser304) pull-down of purified GST-BRCT5; settings: reference: nonphosphorylated Ser304 peptide; sites S304

- binding against the reference (TopBP1 [1]): gained
- binding against the reference [2]: gained
Substance: BLM 297-311 (from UniProt P54132) pS304 peptide

- binding against the reference (TopBP1 [3]): weaker
- binding against the reference (TopBP1 BRCT5 [4]): weaker
- binding against the reference (TopBP1 [5]): lost
- binding against the reference (TopBP1 [6]): weaker
Substance: BLM (from UniProt P54132) S304A

- binding against the reference (TopBP1 BRCT5 [7]): gained
Substance: BLM (from UniProt P54132) pS304 peptide
